Measurements published in PMC3790809.
“And” between values parts separate entries of the source, which are not always exact repeats. Equal values may be shown once.

What was measured:
[1] = molecular target: YsaN-His (full length YsaN, YE3544, with N-terminal His tag) (Yersinia enterocolitica ATCC51871 (serotype O:8, biovar 1B))
[2] = molecular target: YsaN-His (full length YsaN, YE3544, with N-terminal His tag) (Yersinia enterocolitica ATCC51871 (serotype O:8, biovar 1B)); assay: SEC
[3] = molecular target: YsaN-His (full length YsaN, YE3544, with N-terminal His tag) (Yersinia enterocolitica ATCC51871 (serotype O:8, biovar 1B)); assay: SPR
[4] = molecular target: YsaNΔ(411–430)-His (Yersinia enterocolitica ATCC51871 (serotype O:8, biovar 1B)); assay: SPR
[5] = molecular target: YsaNΔ(1–5)-His (Yersinia enterocolitica ATCC51871 (serotype O:8, biovar 1B)); assay: SPR
[6] = molecular target: YsaNΔ(426–430)-His (Yersinia enterocolitica ATCC51871 (serotype O:8, biovar 1B)); assay: SPR
[7] = molecular target: YsaL-His (YE3555 with N-terminal His tag, refolded) (Yersinia enterocolitica ATCC51871 (serotype O:8, biovar 1B)); assay: cross-linking; refolded YsaL-His (100 µg in 30 µl), 2 µL of 1.5% glutaraldehyde, 25°C, 5 min; 50 mM sodium phosphate pH 8.0, 150 mM NaCl; SDS-PAGE
[8] = molecular target: YsaL-His (YE3555 with N-terminal His tag, refolded) (Yersinia enterocolitica ATCC51871 (serotype O:8, biovar 1B)); assay: SEC
[9] = molecular target: YsaNΔ(426-430)-His (Yersinia enterocolitica ATCC51871); assay: SPR
[10] = molecular target: YsaNΔ(411-430)-His (Yersinia enterocolitica ATCC51871); assay: SPR
[11] = molecular target: YsaN-His (full length YsaN, soluble) (Yersinia enterocolitica ATCC51871); assay: SPR
[12] = molecular target: YsaNflr-His (full length YsaN, refolded) (Yersinia enterocolitica ATCC51871); assay: SPR
[13] = molecular target: YsaNΔ(1-5)-His (Yersinia enterocolitica ATCC51871); assay: SPR
[14] = molecular target: YsaN-His (full length YsaN, YE3544, with N-terminal His tag) (Yersinia enterocolitica ATCC51871 (serotype O:8, biovar 1B)); assay: dynamic light scattering; YsaN-His 0.7 mg/ml, 25°C, 25 mM Tris, 300 mM NaCl, 2% glycerol; mass from the hydrodynamic size

Which inhibition of the ATPase activity of YsaN-His (malachite green assay); untagged YsaL in the soluble co-purified untagged YsaL-YsaN-His complex, highly comparable with YsaL-His added at 2∶1 [1] does the source give for “untagged YsaL (YE3555) (natural protein)” here?
The inhibition of the ATPase activity of YsaN-His (malachite green assay); untagged YsaL in the soluble co-purified untagged YsaL-YsaN-His complex, highly comparable with YsaL-His added at 2∶1 was 73%.

What about the stoichiometry N (YsaL per YsaN) [2] of the same substance?
The stoichiometry N (YsaL per YsaN) was 2.

What about the Kd [3] of the same substance?
The Kd was 35 nM and 42 nM.

And the Kd [4]?
Its Kd is 100 nM.

What about the Kd [5] of the same substance?
The Kd was 400000 nM.

What about the Kd [6] of the same substance?
The Kd was 100 nM.

Which stoichiometry N [7] does the source give for “YsaL-His (YE3555 with N-terminal His tag, refolded) (natural protein)” here?
The stoichiometry N was 2.

And the stoichiometry N [8]?
Its stoichiometry N is 2.

“untagged YsaL (YE3555), refolded (natural protein)” was tested. Which Ka [9] did it give?
The Ka was 882000 M⁻¹.

And the Ka [10]?
The Ka was 3.86e+06 M⁻¹.

And the Kd [10]?
Its Kd is 260 nM.

And the koff [10]?
The koff was 0.000132 s⁻¹.

And the kon [10]?
Its kon is 510 M⁻¹ s⁻¹.

And the Ka [11]?
Its Ka is 2.9e+07 M⁻¹.

What about the koff [11] of the same substance?
The koff was 0.000119 s⁻¹.

What about the kon [11] of the same substance?
The kon was 3450 M⁻¹ s⁻¹.

What about the Ka [12] of the same substance?
The Ka was 2.38e+08 M⁻¹.

What about the koff [12] of the same substance?
Its koff is 1.91e-05 s⁻¹.

What about the kon [12] of the same substance?
The kon was 4540 M⁻¹ s⁻¹.

What about the Ka [13] of the same substance?
The Ka was 20300 M⁻¹.

What does the source list for “YsaN-His (full length YsaN, YE3544, with N-terminal His tag) (enzyme)”?
stoichiometry N [2]: 12; percent of sample in the oligomeric form [14]: 90%
